# Assay: soluble on expression in E. coli; label from the status in PepcDB or PDB records
row,Sequence,soluble on expression in E. coli
1,GPGSMARITVELLRRRAEHNEGCLSNLKEIALHQQDIEKIDLIGDACRQLEIIYLCNNYISRIEGLRHLKWLKYLNLAVNNITVIDGLQGCEALERLDLTLNFIAEPTSVQTLLANPFLESLHLTGNPCTKTEGYRAYVIHSLPQLKELDGDEIIRAERITARQAEDVVIEVAEEEAVRVREAERIKQEMLAKGIDPFPPKYNDKGERVYGHTPEERLQILHEQQEMERKKREEQSTPQPGSIAALHQELKRQQQPSQRLTAEEERSKFGRLLLRNEPRVPFHMNQDDAAEFVLTVDPGKFISTTLLSVQVEVDVVRVFIKGKLLQVPVEDELAADAAQVQRSTTTGQLKVMVPYAPEVQERRGGARARLRGLREVTEKASSATGTSAASTTPPPTASPPKVAEPPTRSTLLEIEGRMRGSSSPSLSINQPGTTGTLSSSGKNTTTASSGIVKSVKDISPVPSTMKVSADAATLASQSMTAVLTPTTAASSH,soluble
2,GPGSMEAGGDDLFVINDVEADQMEEVRDARPVEQAQETEADVMESVKGLVPLCVQHAQGPQLSSATFGYDIALMAKRPWAEPGAKLSDYFNYGFNEQSWRVYCAMQEKGEESLLANATAVLQKLELAARPG,soluble
3,GPGSMEGERTMKKNKKGSARGDCDGMISVGAKRLLVSVQDKNRRQKHGEFFDELLLVTQKAKRSPQVINIPGKNEVPVLAVGYIARAMGLNLSNVEVSCLVEMVEEKDLASRGFVPADALKEVIVEALMTGIMAPPKAPVKATPSRKKTASTLPPATIKPISVVRDGEEAIYEAFCVLDLSRRGYLEAEEMRHFLRIGGEPFTEEEVEEFITAAADPENGRIYYEEFADVLARE,soluble
4,GPGSMFSGSEGSVRTDDTNVEPPPIPKTRGPLLFEGVRLAGGPPRRTPKRSCSRYFSVTRKTTSAGTDECEHAPPGFSLVNTPSTQDVSPSAKMELPCSAAAHYDDDDDDDDIIPSTAPLPTPHPVMHRVLATGQPNGVSRLLPFDEYVVEEVTPRKCSSISADTSGAAPSTPQGTELREVTQVEEQSPLPAVPEMCESPTRFTLGPRLPVNGEKVRMDFYFLQQEVDAWAKPIETTADVEWHKQHLQETRVAMRSLLHELEVLIAREAAEHERLCIARGFSAMESTSDGKCTYAGETDVVSKTRGKEWKQEELETLEAWRVEKGALLAQKSKLLREHQELQYRLRSHLSGSATGRVTPSPNTSVSRSNKSRGDEGNIGGMSTPLDNGVAQLRLEISEMNAKLKKLEDAYKVLHDNQQWRQGEFDDEYGALCRALATATAGEINNRTALQDTIREAEGVRANCLRQGDASLVSLMERGLSEAKAALKCHDTEQYETK,not soluble
5,GPGSMHDLPEGFEFMEHKVVNKDIHAPHENLETLRLTLTRQDEFLLREEPVKCVTVTGTNGEYGIYPGHAYKIVQLNPSPLTVEYTDGTTKKYFVSGGFAHINNEGSCDVNTVECTLLDDLDLAIAEKELAAQQAALGSAKDDKAKSVVEIRISVIEAVIAALKHH,soluble
6,GPGSMHSMVRVGLTNGMVLTGRIVEFDAVTMNMKLDAITDMAVLHPAAGEGCGDSAYETNPAALRCCNSVVVRGCHLRYMDFIDEESDNGRGLQELITAVRVVKPSVPQD,not soluble
7,GPGSMIAILFGFTLGTAVGACNRAHYSSYGSSVYIAPLPSNSHNSLAFMDIARYRAGLFTTHQSVCGRVVIELFDSISPVSTTNFRGLCQGKHGTSGTGHKLCYSGTRLLPNECFIRGGDVTFGSAAGGWSIYGRSFREMAKGSSSSSRSSDVKGKGLVYAVGANAQWGSEFLITVDGFTPGEDHILLGQVVEGYDVLQRLQQQSLLPHAKRFIHYRILKAGVLKEAETPNYGKGSAFLRF,not soluble
8,GPGSMKERRSVSQSRTSRTGQLRNGGFRESRFRVALMSRCARPSSSGTSHMFAPSSLPSVGQPSYESGVSSMPNISFPTCNDGALSPGDSMYPPSLPQRAKNKRTGQKDKQKRQSTLGSVDSEEEKRSFLASAAAFRRHRRYNNPFTAYCLASDPYDRPREIERQRQFMSCYKRIACRFVAGGKNALDKPTRYMLGDCVARLYKAVAADWPEADPMVVSSAEDLIVVFMNLDAVRNPVTALRYMNALLKRCDVVRAFDLKKVPEGWDVVTEDGHLMYTFRPPWVGERRFLPDQVAVKKSRGR,not soluble
9,GPGSMKQIAHYFRIKTAKHAVLEAGDNIRELCSVLSFPLIIKHVSGYSSVGMDKSCKVYDMDSLHSRVTRFIEQYQIALVEEFVVGDEATILVCADSTQPDGIRVFPPVMVQFPEGEDFKHFHLKWETYEGMEWRLMPEDDPALSQVLSTARTSFMHMMGGVGYGRVDVRIDRSTHDVVFLEINPNCGVMYPPGQEGSADWILRLTPGFNQREFTLLQIKEALRRNERMQPLFRCVYNPAQGYRMCATRDISAGSPIFEAEGQSVRLYTKPHVKATRGKEEYDQFAQKAWPLGGDGHYYALWDNEPTNWRTFSHSCVPNMNFGPNRSLNLYATRDIARGEELTMDYRLFRDETTPPFQCCCGSECCEGWIAMNGGKLTKEENGNNY,not soluble
10,GPGSMKVFHFHGTYRALGVRPKDFSLRAETVDGWRTPVLTSDWERHCDVEGIVTPALSSAGNAASALEPKGPVQVVVATFSLPPGSYATSVLREFCIRTTENGQGNDLETEDEYSSCADTMSHDGCQERRNGRRHHRPASRCIVTRSMRICSLCRSLSPLSLLLLTYVM,soluble
11,GPGSMLAQCSLFVQPRVFKGLVMRSHAPVACWAASLPWMTQQQRRRSSFASATPAAPSTDAGKGNYFHFFRIAKHPDLDVAALQKKYHNLQRLVHPDQQQVQAQQQQAEAADVAPATSSSPLPFACTSNEAKSSTDVSTYANAAYETLRAPYSRCRYLSRLVKAEEVKGNPLSAAEEEELLVEDDQRTMKAREVRPDAPMSDDFLMEMLAMNELIFAGDSSDEGVRQQWSVLRFDLEDRAVGYFKDAIKSWNDGDMGAFHHIVHEWTYVATALNNLKERMLE,not soluble
12,GPGSMLCRVHLRADPHSSSLHNVVHATNAMAAVNQLLGPERSVFVATEVQPQGVGHSCHGIQLPEDAIIAENVRTSMLVPKVRLHILGDAERGIPPVQQVVIWGYETCGCILQTADDLLTHGVRVAVLVDGCASRTKEVHDTAVLQISRWDGLMVTTVPSAVMQLTRSDARFVKPIIQIMKKFAADWCTTQPRPELRDRGGSGDGEKATAASDARAVPSALATATAADAILAANSACCRTEH,not soluble
13,GPGSMLEPIFEEITCLFASRNPKHALQGLSDGLRNAATGVGLGLAGVVAGTYGGAKEGGLGGMAKGFGAGMAGFVGLTGYGAYAGVRQIVRGVGNTRSAVSEVSKGEAYWDSNAQAWVRVNLACDFERLPQTDEDLLGTARKAYEKAKKDGTLPTTLNDSAEGGGASASSATTGAGAASVPQGTDTGETKPAAAEPVNYYAFLGVESAATPSEIRKAYTRKALEMHPDKNPNDPNATIKFQELNKIYNVLSHEGTRATYDRYGTVDPMNVPEMTGNPMKELLGAAFLEALVGPLHFFLVFEGGVLFTAEMKRELHARRRLRVAKNLVSWLDNGASGFESAQLALRDAVSTALGPVFVSYVAEEYHLASRQQLHGSNWKREMDSWYSSWATSASSLWHWTTMGARTARRAFVDKNLGEEDILRVLAVANERDVRQIVLQACRLVLFDMSVTPAQRQQRAMRLEELSVMAMKEVAREVASRERIGASEATAAAAEKGTTTKTPADTNATAPPFS,soluble
14,GPGSMLILLFFSPEMLRRTLSRCFSADAIGPVHPDVMWGYMDARYAGPGWVSWIKQLPVETLTMQGGTSMTNMNDRTGVIADPEDPRHPIALIQWGPMNHYDGAFMQLSYGDYGPISQGSRLMQVLYDNYLEPFSMNRVCAQLYFYQKVPNNYHESVEASAEYIGQTASLIGQVLVGMGSVIMEGVTVKGDTNCVYIAEGVQVLENTCIVSDAPTDLLAYQRHEAINPYQQWDGMDGVCRIMQNTIIEPNCFLDSCSIGPFNRIGHNTKIMKGVTTGTMVHILPGSVVTKDTKIGDGELWGGAPAVKIGKVSKFEWKRPYFASLLHRESVVESYRNMSRYGDQVVHFQDKMGKLDTLMLQYEKDVPASVKAKIKEFVQGREPFHHMLTRITQGWSPANRPDDKNYNLCPPLPGVKLFAEHNNDSSDSDLHGTYMDITNIFNDFRW,not soluble
15,GPGSMLRHAARCFSPRQCYVSPRVMEAEYAVRGLIPARADEIKADLATGHGTYSFESLVYCNIGNPQSVGQMPLTFYRQVMVLVDAPFLLEDAEIVARLPEDAVARARRYLSEIGTGTGAYTESFGFRFARAAVAAHINELDHGVSPAATVNDICLTDGASMGAKLFLQLLVGGASDAVMIPVPQYPLYSAQIALLGGVKVPYGLHESEGWVMKLSDLVAAYERCVTESGATPRLFVCINPGNPTGNVLERCVMEDVVRFCHERGMLLLADEVYQENVYDTRRRFLSFREVVLGMPEPYCSETMLVSLHSTSKGVIGECGRRGGYFCMTNLPAALRQQVVKLCSINLCANVNGQLMTALMCSPPREGEASYALHRREYDEIFTGMKERAELLARELGAVRGLSCQPVEGAMYAFPRIVLPERYAQRNEELNAKEGRQLALDARWALELLESSGIVVVPGSGFGQEPGTLHFRITILPPLEQIDRMVRAIREFQDRIYEQYA,soluble
16,GPGSMLTTTDVGGVVRRINVDYKKLKAAYDQNNDSLCLNLVNGLKKQLILLPTFLNPAAASATWLEEVTLTREVLEYAVLVSARLEDLASFELYFNQLSVYYTDIDPTKLEESPLYSLILGLNLVRLLVDDRIAQFHTELEKVPNHIYAPNAYVRFAVLLERYLMEGSYSKLLNSRDQAPSKEYIPIVGMLEKTVRQGVAECIPHSYAKLSFERAQKILMVDSTDAVREIGKQYEWELGKDGASFVFTRREDIAKREVPFQEMLGHHLNFAADLQRIV,soluble
17,GPGSMMTPEDATGLEAARKQKIHNLKLKTACLENEELVQELHISDWSETQRQKLRGAHEKGEELLASVEVGTKWNLMEAYDLAKLMRVCGLEMSQRELYRPEDKPQFMDIIGVKKVLQDLRQNRNKTRVVSFTQLIDNSIAKMEKVEEELRRSQLDATQLAQVPTRTVKMMEDIMNATQIQNALASTDDQMQTQLAQLEKTNEIQNVAMHDGEMQVAEEQMWTKVQLQERLIELLKDKFGLIGKCEEENAQFKEIYEVQKQANQETSQMKDAKRRLRQRCETDLKHIQDAIQKADLEDAEAAKRYAGNKERSERAIKENEEMQEEAWNKIQDLERQLQNLGTDRFDEVKRRIEEVDREEKRRVENAQFLEIAAQHKKLLELTVYNCDLAMRCTGLVEELVSEGCAGVKARYDKTNQDLAALRLEVHKEHLEYFRMLYLTLGSLIYKKEKRLEEIDRNIRLAHIQLEFCVETFDPNAKKHADMKKELYKLRQGVEEELAMLKEKQAAALDDFKESEEALDAAGIEFSHPVDENNEEVLTRRSKMVEYKSHLTKQEEVRIAAEREEIKRARLLRSGGESAAAQITSGSMNADYAASAQLEL,soluble
18,GPGSMMTTCPQTRCYNCGTFGHSSQICHSKPHCFHCSHSGHRSSECPMRSKGRVCYQCNEPGHEAANCPQGQLCRMCHRPGHFVAHCPEVVCNLCHLKGHTAGVCDNVHCDNCGRNHETVHCHQPYLAPVTHDRVSEERSASLPSEHDPSSADQSNNSATPCDSDDGGSNRGGEPRPRTGVSCAPVVPPYIPLDGPKRDGRVAIVVDGSYFERCVAVRRNRSDPTYYRHITDALLYTIDYIGDIFQCEPFAYWFDTDTAAFREFVETSMPLAHRENAFREASMRKRYLTDEMNSGRSLPNVVAKLVGGMKRQRGFTEDGPGHVWVQTGVDVATATCVIELFQDRRQFRQVVLLCGDADVYPAVQYCNTLRRSSHQHADSNPVRVCGTSDSMSKIYGQQQDLTDFLPRLLLDCPLHTEGGRTIEFPTSKVFMSVR,not soluble
19,GPGSMNLGHAAASSIVVKVAELAKKAFYRLKISSAYSSKLTEAVGTALMSADPEVPVDPNRRSGGHVIRNMIYQHDSSHNIEIVTGWKDQGTREYNQQIAPPAKLDLSPKHPCYPLNEQLVRCSLECPMEMKLAGRIASCNSERKNLMVCLTKNKSWKEEPASAWYKFF,not soluble
